# Measured values published in the supplement of paper PMC7877785.
# ± gives the uncertainty stated by the source.
# Assay: self-splicing fitness, log relative to wild type (ln ratio); higher = more splicing; Tetrahymena group I intron in knt gene, E. coli kanamycin selection, DiMSum; sequences stand for … in CUCUCU…GGAGGGAAAAGUUAUCAGGCAUGCACCUGGUAGCUAGUCUUUAAACCAAUAGAUUGCAUCGGUUUAAAAGGCAAGACCGUCAAAUUGCGGGAAAGGGGUCAACAGCCGUUCAGUACCAAGUCUCAGGGGAAACUUUGAGAUGGCCUUGCAAAGGGUAUGGUAAUAAGCUGACGGACAUGGUCCUAACCACGCAGCCAAGUCCUAAGUCAACAGAUCUUCUGUUGAUAUGGAUGCAGUUCACAGACUAAAUGUCGGUCGGGGAAGAUGUAUUCUUCUCAUAAGAUAUAGUCGGACCUCUCCUUAAUGGGAGCUAGCGGAUGAAGUGAUGCAACACUGGAGCCGCUGGGAACUAAUUUGUAUGCGAAAGUAUAUUGAUUAGUUUUGGAGUACUCGUGGUCG
# Outline: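 Fitness was computed with DiMSum as the error-weighted combination of replicate fold changes, kanamycin versus none, each normalised to wild type. The library randomised all eight intron nucleotides of the P1ex region, with the intron placed in the knt kanamycin-resistance gene on pET-22b(+) in E. coli BL21(DE3). Six replicate transformations were grown overnight at 37°C or 30°C on LB agar with or without 25 μg/mL kanamycin, plus 100 μg/mL carbenicillin, 50 μM IPTG and 0.2% rhamnose. Pooled colonies were amplicon-sequenced on an Illumina HiSeq 2500.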
Sequence,self-splicing fitness (ln) (30 °C),self-splicing fitness (ln) (37 °C)
AUUGAGCAAUAUUACGUCGU,-1.59 ± 0.15,-1.69 ± 0.17
AUUGAGCAAUAUUACGUCUA,-2.12 ± 0.17,-1.77 ± 0.21
AUUGAGCAAUAUUACGUGAU,-1.58 ± 0.14,-2.17 ± 0.22
AUUGAGCAAUAUUACGUGGG,,-1.57 ± 0.19
AUUGAGCAAUAUUACGUUGC,-2.94 ± 0.33,-1.64 ± 0.18
AUUUAGCAAUAUUACGAAAC,-2.83 ± 0.22,-2 ± 0.27
AUUUAGCAAUAUUACGAAAG,-2.86 ± 0.25,-0.748 ± 0.17
AUUUAGCAAUAUUACGACAG,-2.19 ± 0.24,0.257 ± 0.26
AUUUAGCAAUAUUACGACUU,-0.092 ± 0.059,0.239 ± 0.067
AUUUAGCAAUAUUACGAGUA,-2.95 ± 0.27,-0.93 ± 0.18
AUUUAGCAAUAUUACGAUCA,-1.08 ± 0.19,0.104 ± 0.16
AUUUAGCAAUAUUACGCACA,-0.136 ± 0.093,-0.202 ± 0.095
AUUUAGCAAUAUUACGCCGC,-1.8 ± 0.41,-1.82 ± 0.48
AUUUAGCAAUAUUACGCCUG,-1.23 ± 0.12,-0.529 ± 0.12
AUUUAGCAAUAUUACGGAAA,-2.75 ± 0.29,-1.47 ± 0.21
AUUUAGCAAUAUUACGGAGC,-3.49 ± 0.45,
AUUUAGCAAUAUUACGGGUA,-2.72 ± 0.3,-1.17 ± 0.17
AUUUAGCAAUAUUACGUCAA,-3.4 ± 0.29,-2.14 ± 0.34
AUUUAGCAAUAUUACGUCAU,-1.76 ± 0.1,-0.485 ± 0.1
AUUUAGCAAUAUUACGUGCC,-0.606 ± 0.15,0.118 ± 0.14

Sequence,self-splicing fitness (ln) (30 °C),self-splicing fitness (ln) (37 °C)
AUUUAGCAAUAUUACGUGGG,-3.33 ± 0.3,-2.44 ± 0.3
AUUUAGCAAUAUUACGUGGU,-2.91 ± 0.18,-2.45 ± 0.29
CAAAAGCAAUAUUACGAAAA,-2.35 ± 0.18,-2.11 ± 0.2
CAAAAGCAAUAUUACGAACC,-1.63 ± 0.31,-1.45 ± 0.28
CAAAAGCAAUAUUACGACAA,-1.85 ± 0.13,-1.64 ± 0.15
CAAAAGCAAUAUUACGACCC,-1.54 ± 0.15,-1.72 ± 0.32
CAAAAGCAAUAUUACGAGGA,-3.08 ± 0.19,-2.14 ± 0.15
CAAAAGCAAUAUUACGAUAU,-4.43 ± 0.25,-2.23 ± 0.18
CAAAAGCAAUAUUACGAUGA,-0.319 ± 0.074,-0.167 ± 0.075
CAAAAGCAAUAUUACGAUUC,-2.41 ± 0.11,-0.98 ± 0.089
CAAAAGCAAUAUUACGCCGC,,-1.32 ± 0.48
CAAAAGCAAUAUUACGCCUG,-1.07 ± 0.13,-0.273 ± 0.13
CAAAAGCAAUAUUACGCGUG,-3.22 ± 0.11,-2.11 ± 0.14
CAAAAGCAAUAUUACGCUCA,-1.64 ± 0.11,-0.465 ± 0.13
CAAAAGCAAUAUUACGCUGA,-3.25 ± 0.2,-1.81 ± 0.15
CAAAAGCAAUAUUACGGAUU,-3.49 ± 0.1,-2.87 ± 0.1
CAAAAGCAAUAUUACGGCGC,-2.33 ± 0.13,-1.5 ± 0.18
CAAAAGCAAUAUUACGGCUG,-1.3 ± 0.088,-0.592 ± 0.11
CAAAAGCAAUAUUACGGGAU,-3.95 ± 0.19,-3.04 ± 0.22
